Reference: PMC2199314 (The Journal of Cell Biology, 2001)

Biological target: taxol-stabilized bovine brain microtubules (bovine, UniProt Q6B856 1-445)

Kd: ~500 nM
B1: Escherichia coli–purified Dam1p (natural protein, S. cerevisiae, UniProt P53267 1-343, looked up)
chain: MSEDKAKLGTTRSATEYRLSIGSAPTSRRSSMGESSSLMKFADQEGLTSSVGEYNENTIQQLLLPKIRELSDSIITLDSNFTRLNFIHESLADLNESLGSLLYGIMSNSWCVEFSQAPHDIQDDLIAIKQLKSLEDEKNNLVMELSNMERGIKRKKDEQGENDLAKASQNKQFNQPLFPSSQVRKYRSYDNRDKRKPSKIGNNLQVENEEDYEDDTSSEASFVLNPTNIGMSKSSQGHVTKTTRLNNNTNSKLRRKSILHTIRNSIASGADLPIENDNVVNLGDLHPNNRISLGSGAARVVNGPVTKNRNSMFSGRAERKPTESRHSVAKKTEKKINTRPPFR
